One molecule from patent US20090291081A1 (AbbVie / Abbott, published 2009) can be followed below.

Test [1] addresses T1, human IL-1α (human, UniProt P01583 113-271).
T1 sequence (looked up): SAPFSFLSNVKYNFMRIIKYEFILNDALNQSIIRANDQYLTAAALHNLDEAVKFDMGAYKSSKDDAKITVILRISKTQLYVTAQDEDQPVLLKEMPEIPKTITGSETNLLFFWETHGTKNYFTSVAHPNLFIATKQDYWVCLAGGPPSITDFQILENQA
Kind of test: cell-based or functional assay.

For test [2], the target named is T1, human IL-1α. In words: IL-1 Receptor Binding Assay.
Test [3] has as its target T1, human IL-1α. In words: method not given.

B1: ABT1-95-8 (other)
VL: DIQMTQSPSSLSASVGDRVTITCRASQPIQGNLRWYQQKPGKAPKLLIYSSSYLERGVPSRFSGSGSGTDFTLTISSLQPEDFATYHCQQGYRWPVTFGQGTKVEIKR
notes: dAb, Vκ, to IL-1α
Take B1: the “MRC5 ND50” value in test [1] amounted to 0.9 nM. The same molecule showed a concentration for half-maximal inhibition (IC50) in test [2] of 1 nM. The molecule further gave an equilibrium dissociation constant (Kd) in test [3] of 0.9 nM.

What is called IC50 is the concentration that inhibits the measured activity by half. The low end stands for higher potency, the high end for lower potency. The term Kd denotes the equilibrium constant for the complex coming apart. A high value points to weaker binding.
